The text below walks through data of paper PMC7141834 (Science Advances, 2020).

The target of the assay is His-Bub3 (recombinant full-length Bub3) (mouse, UniProt Q9WVA3 1-326). The assay is described as follows: pull-down.
Sequence of His-Bub3 (recombinant full-length Bub3) (Q9WVA3 whole entry): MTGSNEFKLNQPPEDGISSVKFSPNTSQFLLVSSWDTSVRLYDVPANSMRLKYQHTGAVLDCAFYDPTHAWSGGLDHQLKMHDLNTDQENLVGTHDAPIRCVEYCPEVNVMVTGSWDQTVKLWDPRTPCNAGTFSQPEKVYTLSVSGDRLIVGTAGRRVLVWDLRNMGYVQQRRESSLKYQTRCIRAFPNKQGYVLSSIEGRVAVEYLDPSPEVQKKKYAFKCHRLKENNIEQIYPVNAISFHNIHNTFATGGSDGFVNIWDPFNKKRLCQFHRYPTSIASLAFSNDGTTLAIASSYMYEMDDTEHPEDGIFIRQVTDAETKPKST

B1: GST-Wapl(1-50) (domain or fragment, mouse, UniProt Q65Z40 1-50, looked up)
chain: MTSRFGKTYSRKGGNGSSKFDEVFSNKRTTLSTKWGETTFMAKLGQKRPN
For the molecule B1, the binding result was “binds”.
